Article doi:10.1101/2021.03.15.435402, “GTP and lipids control self-assembly and functional promiscuity of Dynamin2 molecular machinery” (bioRxiv, 2021)

Tests used:
[1] = target: the molecule itself; assay: single-molecule fluorescence microscopy (oligomer size from mEGFP intensity); Dyn2-mEGFP (10-20 nM) premixed with 0.2 mM LUVs (Rh-DOPE) added to nanotubes, no GTP; mEGFP fluorescence colocalized with LUVs tethered to the nanotube
[2] = target: the molecule itself; assay: single-molecule fluorescence microscopy (oligomer size from mEGFP intensity); Dyn2-mEGFP 20 nM pulse-perfused on membrane nanotubes (40 mol% PE, 0.1 mol% Cy5-PE), protein washed off from the bulk, no nucleotide (apo); total fluorescence divided by the mean intensity of a single mEGFP

B1: Dyn2 labeled with monomeric GFP (Dyn2-mEGFP) (natural protein, UniProt P50570 1-870, looked up)
chain: MGNRGMEELIPLVNKLQDAFSSIGQSCHLDLPQIAVVGGQSAGKSSVLENFVGRDFLPRGSGIVTRRPLILQLIFSKTEHAEFLHCKSKKFTDFDEVRQEIEAETDRVTGTNKGISPVPINLRVYSPHVLNLTLIDLPGITKVPVGDQPPDIEYQIKDMILQFISRESSLILAVTPANMDLANSDALKLAKEVDPQGLRTIGVITKLDLMDEGTDARDVLENKLLPLRRGYIGVVNRSQKDIEGKKDIRAALAAERKFFLSHPAYRHMADRMGTPHLQKTLNQQLTNHIRESLPALRSKLQSQLLSLEKEVEEYKNFRPDDPTRKTKALLQMVQQFGVDFEKRIEGSGDQVDTLELSGGARINRIFHERFPFELVKMEFDEKDLRREISYAIKNIHGVRTGLFTPDLAFEAIVKKQVVKLKEPCLKCVDLVIQELINTVRQCTSKLSSYPRLREETERIVTTYIREREGRTKDQILLLIDIEQSYINTNHEDFIGFANAQQRSTQLNKKRAIPNQGEILVIRRGWLTINNISLMKGGSKEYWFVLTAESLSWYKDEEEKEKKYMLPLDNLKIRDVEKGFMSNKHVFAIFNTEQRNVYKDLRQIELACDSQEDVDSWKASFLRAGVYPEKDQAENEDGAQENTFSMDPQLERQVETIRNLVDSYVAIINKSIRDLMPKTIMHLMINNTKAFIHHELLAYLYSSADQSSLMEESADQAQRRDDMLRMYHALKEALNIIGDISTSTVSTPVPPPVDDTWLQSASSHSPTPQRRPVSSIHPPGRPPAVRGPTPGPPLIPVPVGAAASFSAPPIPSRPGPQSVFANSDLFPAPPQIPSRPVRIPPGIPPGVPSRRPPAAPSRPTIIRPAEPSLLD
notes: Dynamin 2 (Dyn2) fused to monomeric EGFP; source: purified
[1]
  stoichiometry N: 38 ± 16 molecules
[2]
  stoichiometry N: 12 ± 6 mEGFP units
